{"source": "patent US20140024061", "key": {"SEQ ID NO: 5 peptide": {"biological_target": "T1, SEQ ID NO: 5 peptide", "T1 chain": "PTLDLFRELLNELLQKLKK"}, "SEQ ID NO: 13 peptide": {"biological_target": "T2, SEQ ID NO: 13 peptide", "T2 chain": "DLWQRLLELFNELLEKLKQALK"}, "SEQ ID NO: 4 peptide": {"biological_target": "T3, SEQ ID NO: 4 peptide", "T3 chain": "PVLDLFRELLNELLQKLKK"}, "SEQ ID NO: 14 peptide": {"biological_target": "T4, SEQ ID NO: 14 peptide", "T4 chain": "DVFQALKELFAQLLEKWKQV"}, "SEQ ID NO: 12 peptide": {"biological_target": "T5, SEQ ID NO: 12 peptide", "T5 chain": "EVLKNLLEKLLEKLKELF"}, "SEQ ID NO: 3 peptide": {"biological_target": "T6, SEQ ID NO: 3 peptide", "T6 chain": "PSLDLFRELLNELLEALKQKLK"}, "SEQ ID NO: 2 peptide": {"biological_target": "T7, SEQ ID NO: 2 peptide", "T7 chain": "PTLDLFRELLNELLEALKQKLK"}, "SEQ ID NO: 6 peptide": {"biological_target": "T8, SEQ ID NO: 6 peptide", "T8 chain": "PVLDLFRELLEELLQKLKK"}}}
{"protein": "recombinant human LCAT (lecithin:cholesterol acyltransferase) (protein) FWLLNVLFPPHTTPKAELSNHTRPVILVPGCLGNQLEAKLDKPDVVNWMCYRKTEDFFTIWLDLNMFLPLGVDCWIDNTRVVYNRSSGLVSNAPGVQIRVPGFGKTYSVEYLDSSKLAGYLHTLVQNLVNNGYVRDETVRAAPYDWRLEPGQQEEYYRKLAGLVEEMHAAYGKPVFLIGHSLGCLHLLYFLLRQPQAWKDRFIDGFISLGAPWGGSIKPMLVLASGDNQGIPIMSSIKLKEEQRITTTSPWMFPSRMAWPEDHVFISTPSFNYTGRDFQRFFADLHFEEGWYMWLQSRDLLAGLPAPGVEVYCLYGVGLPTPRTYIYDHGFPYTDPVGVLYEDGDDTVATRSTELCGLWQGRQPQPVHLLPLHGIQHLNMVFSNLTLEHINAILLGAYRQGPPASPTASPEPPPPE", "values": [{"measurement": "RELATIVE ACTIVITY (Percent activity relative to SEQ ID: 1); DHE esterification by rhLCAT with peptide mHDL substrate", "setting": "SEQ ID NO: 5 peptide", "value": 65, "unit": "%"}, {"measurement": "RELATIVE ACTIVITY (Percent activity relative to SEQ ID: 1); DHE esterification by rhLCAT with peptide mHDL substrate", "setting": "SEQ ID NO: 13 peptide", "value": 0, "unit": "%"}, {"measurement": "RELATIVE ACTIVITY (Percent activity relative to SEQ ID: 1); DHE esterification by rhLCAT with peptide mHDL substrate", "setting": "SEQ ID NO: 4 peptide", "value": 86, "unit": "%"}, {"measurement": "RELATIVE ACTIVITY (Percent activity relative to SEQ ID: 1); DHE esterification by rhLCAT with peptide mHDL substrate", "setting": "SEQ ID NO: 14 peptide", "value": 0, "unit": "%"}, {"measurement": "RELATIVE ACTIVITY (Percent activity relative to SEQ ID: 1); DHE esterification by rhLCAT with peptide mHDL substrate", "setting": "SEQ ID NO: 12 peptide", "value": 21, "unit": "%"}, {"measurement": "RELATIVE ACTIVITY (Percent activity relative to SEQ ID: 1); DHE esterification by rhLCAT with peptide mHDL substrate", "setting": "SEQ ID NO: 3 peptide", "value": 87, "unit": "%"}, {"measurement": "RELATIVE ACTIVITY (Percent activity relative to SEQ ID: 1); DHE esterification by rhLCAT with peptide mHDL substrate", "setting": "SEQ ID NO: 2 peptide", "value": 94, "unit": "%"}, {"measurement": "RELATIVE ACTIVITY (Percent activity relative to SEQ ID: 1); DHE esterification by rhLCAT with peptide mHDL substrate", "setting": "SEQ ID NO: 6 peptide", "value": 65, "unit": "%"}]}
